According to publication PMC2148136:

Molecular target: Gin4p kinase domain (codons 1-294), DBD fusion (S. cerevisiae) (UniProt Q12263)
Test: two-hybrid

UniProt Q12263, sequence (Q12263 1-294): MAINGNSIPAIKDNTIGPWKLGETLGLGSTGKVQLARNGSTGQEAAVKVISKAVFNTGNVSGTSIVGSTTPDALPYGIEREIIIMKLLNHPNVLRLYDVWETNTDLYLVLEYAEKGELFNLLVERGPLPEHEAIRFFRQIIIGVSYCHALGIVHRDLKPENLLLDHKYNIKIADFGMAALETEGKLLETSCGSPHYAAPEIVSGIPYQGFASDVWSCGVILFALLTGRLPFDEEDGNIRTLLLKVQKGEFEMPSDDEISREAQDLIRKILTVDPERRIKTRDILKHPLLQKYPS

Substance: COOH-terminal region of Cdc3p (the 101 COOH-terminal amino acids), AD fusion (domain or fragment)
- units of β-galactosidase activity (units of β-galactosidase activity): 727
